From patent US20100260765A1 (AstraZeneca / MedImmune, published 2010)

How the values were obtained:
[1] = target: T1, soluble KDR extracellular domain (ECD) (Calbiochem) (human, UniProt P35968 20-764); assay: Limited Antigen ELISA, KDR coat 3.125 ng/mL, supernatant 1:25
T1 construct: extracellular domain; Bought protein; also called KDR-ECD; VEGF Receptor 2 D1-7, Cat. #676490
Protocol: (§1) Samples containing one concentration of antibody (Ab) (1:25 dilution) were incubated overnight to allow Ab binding to approach equilibrium. The low antigen concentration limited the effect of antibody concentration, allowing ranking of the antibodies based on their relative affinity.

[2] = target: T1, soluble KDR extracellular domain (ECD) …; assay: High Antigen ELISA, KDR coat 500 ng/mL, supernatant 1:6075
[3] = target: T1, soluble KDR extracellular domain (ECD) …; assay: Limited Antigen ELISA, KDR coat 25 ng/mL, supernatant 1:25
Protocol: as §1

[4] = target: T1, soluble KDR extracellular domain (ECD) …; assay: Limited Antigen ELISA, KDR coat 50 ng/mL, supernatant 1:25
Protocol: as §1

[5] = target: T1, soluble KDR extracellular domain (ECD) …; assay: High Antigen ELISA, KDR coat 500 ng/mL, supernatant 1:75
[6] = target: T1, soluble KDR extracellular domain (ECD) …; assay: High Antigen ELISA, KDR coat 500 ng/mL, supernatant 1:25
[7] = target: T1, soluble KDR extracellular domain (ECD) …; assay: High Antigen ELISA, KDR coat 500 ng/mL, supernatant 1:18,225
[8] = target: T1, soluble KDR extracellular domain (ECD) …; assay: High Antigen ELISA, KDR coat 500 ng/mL, supernatant 1:675
[9] = target: T1, soluble KDR extracellular domain (ECD) …; assay: Limited Antigen ELISA, KDR coat 6.25 ng/mL, supernatant 1:25
Protocol: as §1

[10] = target: T1, soluble KDR extracellular domain (ECD) …; assay: High Antigen ELISA, KDR coat 500 ng/mL, supernatant 1:225
[11] = target: T1, soluble KDR extracellular domain (ECD) …; assay: High Antigen ELISA, KDR coat 500 ng/mL, supernatant 1:2025
[12] = target: KDR endogenously expressed on human umbilical vein endothelial cells (HUVEC) (human, UniProt P35968 20-1356); assay: cell-based or functional assay
Sequence of KDR endogenously expressed on human umbilical vein endothelial cells (HUVEC) (P35968 20-1356): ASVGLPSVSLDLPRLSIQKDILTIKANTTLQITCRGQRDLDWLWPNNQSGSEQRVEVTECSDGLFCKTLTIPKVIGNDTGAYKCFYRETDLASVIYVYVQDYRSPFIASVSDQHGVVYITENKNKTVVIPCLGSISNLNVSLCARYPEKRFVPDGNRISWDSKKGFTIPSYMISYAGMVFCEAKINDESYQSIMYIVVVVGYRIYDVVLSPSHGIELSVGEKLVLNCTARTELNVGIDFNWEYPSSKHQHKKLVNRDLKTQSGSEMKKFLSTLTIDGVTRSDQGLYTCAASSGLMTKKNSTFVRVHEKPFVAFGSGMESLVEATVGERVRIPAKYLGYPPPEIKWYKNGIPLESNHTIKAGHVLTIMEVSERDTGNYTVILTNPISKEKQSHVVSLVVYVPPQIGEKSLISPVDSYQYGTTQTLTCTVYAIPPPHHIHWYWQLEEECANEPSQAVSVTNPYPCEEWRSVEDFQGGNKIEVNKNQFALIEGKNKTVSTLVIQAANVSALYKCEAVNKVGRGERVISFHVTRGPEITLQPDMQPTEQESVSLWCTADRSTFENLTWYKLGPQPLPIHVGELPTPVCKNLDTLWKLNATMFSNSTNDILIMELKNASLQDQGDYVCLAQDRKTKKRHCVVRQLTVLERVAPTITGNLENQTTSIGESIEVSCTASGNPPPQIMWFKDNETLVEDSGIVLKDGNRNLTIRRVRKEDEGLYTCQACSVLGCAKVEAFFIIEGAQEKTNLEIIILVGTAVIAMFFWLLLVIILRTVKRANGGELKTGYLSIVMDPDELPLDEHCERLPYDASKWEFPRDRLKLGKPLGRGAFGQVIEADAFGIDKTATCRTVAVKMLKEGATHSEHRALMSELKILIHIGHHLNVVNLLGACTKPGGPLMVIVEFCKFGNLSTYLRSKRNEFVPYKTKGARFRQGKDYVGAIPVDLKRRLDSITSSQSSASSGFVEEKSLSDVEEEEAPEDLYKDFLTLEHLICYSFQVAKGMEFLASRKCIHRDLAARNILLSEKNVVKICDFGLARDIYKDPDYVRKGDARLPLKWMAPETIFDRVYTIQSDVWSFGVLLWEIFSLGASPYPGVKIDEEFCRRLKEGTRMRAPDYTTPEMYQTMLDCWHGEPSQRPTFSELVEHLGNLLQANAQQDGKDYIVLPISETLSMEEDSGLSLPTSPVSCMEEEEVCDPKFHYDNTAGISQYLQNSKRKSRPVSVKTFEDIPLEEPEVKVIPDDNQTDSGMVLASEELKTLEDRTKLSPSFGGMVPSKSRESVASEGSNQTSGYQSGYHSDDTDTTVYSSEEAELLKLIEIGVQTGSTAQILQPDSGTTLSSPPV

[13] = target: T1, soluble KDR extracellular domain (ECD) …; assay: Limited Antigen ELISA, KDR coat 12.5 ng/mL, supernatant 1:25
Protocol: as §1

[14] = target: T2, human KDR (VEGFR2) on cells (human, UniProt P35968 20-1356); assay: cell-based or functional assay
T2 sequence (P35968 20-1356): as above

[15] = target: T2, human KDR (VEGFR2) on cells; assay: cell-based or functional assay; remark: listed apart in the source
[16] = target: T2, human KDR (VEGFR2) on cells; assay: cell-based or functional assay; remark: listed apart in the source
[17] = target: T2, human KDR (VEGFR2) on cells; assay: FACS on HUVEC, hybridoma supernatant 1:50
Protocol: HUVECs were seeded at 15,000 cells/well and incubated with 100 μL of sample supernatant (at 1:50 dilution) for one hour at 4° C. The positive control was goat anti-KDR antibody (R&D Systems, Inc.), and negative controls included irrelevant hybridoma supernatants at the same dilution. The cells were then washed and incubated with Cy5-conjugated goat anti-human antibody at 5 μg/mL and 7-Amino-Actinomycin D (7AAD) at 5 μg/mL for 15 minutes at 4° C. Bound KDR was detected using FACS analysis.

[18] = target: T3, soluble KDR (VEGF Receptor 2 D1-7, Cat. #676490, Calbiochem) (human, UniProt P35968 20-764); assay: ELISA, plate-coated soluble KDR 250 ng/mL, hybridoma supernatant 1:5
T3 construct: extracellular domain; Bought reagent; also called soluble human KDR; immobilized soluble KDR
T3 sequence (P35968 20-764): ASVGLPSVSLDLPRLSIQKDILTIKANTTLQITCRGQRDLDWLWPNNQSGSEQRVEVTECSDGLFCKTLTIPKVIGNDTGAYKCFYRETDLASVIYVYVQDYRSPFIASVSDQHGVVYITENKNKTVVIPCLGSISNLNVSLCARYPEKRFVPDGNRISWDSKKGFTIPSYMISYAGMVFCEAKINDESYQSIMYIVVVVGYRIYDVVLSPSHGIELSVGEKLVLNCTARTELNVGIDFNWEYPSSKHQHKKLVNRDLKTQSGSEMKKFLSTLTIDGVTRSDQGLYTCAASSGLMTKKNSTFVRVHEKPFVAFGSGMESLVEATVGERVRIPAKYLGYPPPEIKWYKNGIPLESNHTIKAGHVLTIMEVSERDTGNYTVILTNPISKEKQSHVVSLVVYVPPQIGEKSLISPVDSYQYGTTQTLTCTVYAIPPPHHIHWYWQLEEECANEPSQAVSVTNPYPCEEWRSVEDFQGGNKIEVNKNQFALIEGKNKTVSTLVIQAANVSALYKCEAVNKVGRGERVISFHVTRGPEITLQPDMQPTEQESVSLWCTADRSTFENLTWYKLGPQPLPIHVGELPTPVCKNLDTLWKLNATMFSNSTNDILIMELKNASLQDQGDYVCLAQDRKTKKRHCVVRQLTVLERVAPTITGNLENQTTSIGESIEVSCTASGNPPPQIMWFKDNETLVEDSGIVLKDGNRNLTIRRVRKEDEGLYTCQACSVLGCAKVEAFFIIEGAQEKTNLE
Protocol: To screen by binding to immobilized soluble KDR, plates were coated with KDR (Calbiochem) at 250 ng/mL overnight at 4° C. After blocking and washing the coated plates, the candidate hybridoma supernatants (at 1:5 dilution) were transferred to the plates and incubated for one hour at room temperature. The plates were then washed and incubated with secondary antibody (at 1:4000 dilution) for one hour at room temperature.

T1 sequence (P35968 20-764): as above

Binder | ELISA reading [1] | ELISA reading [2] | ELISA reading [3] | ELISA reading [4] | ELISA reading [5] | ELISA reading [6] | ELISA reading [7] | ELISA reading [8] | ELISA reading [9] | ELISA reading [10] | ELISA reading [11] | VEGF-E-mediated Survival % Inhibition (Average) [12] [%] | VEGF-E-mediated Survival % Inhibition (n = 1) [12] [%] | VEGF-E-mediated Survival % Inhibition (n = 2) [12] [%] | ELISA reading [13] | other results
30F6 (antibody, V domains shown, Fully human mAb from XenoMouse hybridoma, tested as hybridoma supernatant) VH: QVQLVESGGGVVQPGRSLRLSCAASGFTFSTYGMHWVRQAPGKGLEWVAVIWYDGSNKYYADSVKGRFTISRDNSKNTLYLQMNSLRAEDTAVYYCACSYWNDDYYYGMDVWGQGTTVTVSS VL: DIQMTQSPSSLSASVGDRVIITCRASQNISSYLIWYQQKPGKAPNLLIHTTSSLQRGVPSRFSGSGSGTDFTLTISSLQPEDFATYYCQQSYSAPLTFGGGTKVEIK | 0.1 | 0.16 | 0.31 | 0.52 | 3.12 | 3.04 | 0.09 | 0.93 | 0.13 | 2.42 | 0.35 | 37 | 31 | 43 | 0.25 | 
31E11 (antibody, V domains shown, Fully human mAb from XenoMouse hybridoma, tested as hybridoma supernatant) VH: QVQLVESGGGLVKPGGSLRLSCAASGFTFSDYYMSWIRQAPGKGLEWVSYISISGSTIYYADSVKGRFTISRDNAKNSLYLQMNSLRAEDTAVYYCARDDFWSGYYFNWFDPWGQGTLVTVSS VL: DIQMTQSPSSLSASVGDRVTITCRANQTISTFLNWYQQNPGKAPKLLIYAASSLQSGVPSRFSGSGSGTDFTLTISSLQPEDFATYYCQQTYIIPLTFGGGTKVEIK | 0.2 | 0.62 | 1.24 | 2.37 | 6 | 4.48 | 0.31 | 3.6 | 0.39 | 4.61 | 1.81 | 55 | 56 | 54 | 0.68 | 
33C3 (antibody, V domains shown, Fully human mAb from XenoMouse hybridoma, tested as hybridoma supernatant) VH: QVQLVESGGGLVKPGESLRLSCAASGFTFSDYYMSWIRQAPGKGLEWVSYISHGGSTIYYADSVKGRFTISRDNAKNSLYLQMNSLRVEDTAVYFCARDDFWSGYYFNWFDPWGQGALVTVSS VL: DIQMTQYPLSLSASVGDRVTITCRASQSISSFLNWYHQKPGKAPKLLIYGTSSLQSGVPSRFSGSGSGTDFTLTISSLQPEDFATYYCQQTYSIPLTFGGGTNVEIK | 0.2 | 0.31 | 1.32 | 3 | 4.96 | 4.96 | 0.18 | 2.55 | 0.37 | 4.31 | 0.84 | 74 | 78 | 69 | 0.72 | 
30E3 (antibody, V domains shown, Fully human mAb from XenoMouse hybridoma, tested as hybridoma supernatant) VH: EVQLLESGGGLVQPGGSLRLSCAASGFTFSNYALSWVRQAPGKGLEWVSAISGSGRNTYYADSVKGRFTLSRDNSKNTLFLQMNSLRAEDTAVYYCAKASGDNWGQGTLVTVSS VL: not shown | 0.24 | 0.32 | 1.37 | 2.71 | 4.78 | 6 | 0.18 | 2.12 | 0.43 | 4.45 | 0.86 | -14 | -21 | -7 | 0.73 | 
30H10 (antibody, V domains shown, Fully human mAb from XenoMouse hybridoma, tested as hybridoma supernatant) VH: EVQLLESGGGLVQPGGSLRLSCAASGFTFSNYAMSWVRQAPGKGLEWVSAISGSGGITYYADSVKGRFTISRDNSKNTLFLQMNSLRAEDTAVYYCAKASGDNWGQGTLVSVSS VL: not shown | 0.17 | 1.18 | 1.18 | 2.21 | 6 | 4.42 | 0.64 | 4.61 | 0.31 | 6 | 2.52 | -10 | -21 | 2 | 0.52 | 
32C11 (antibody, V domains shown, Fully human mAb from XenoMouse hybridoma, tested as hybridoma supernatant) VH: EVQLLESGGTLVQPGGSLRLSCAASGFTFSNYAMSWVRQAPGKGLEWVSAISGRAGSTYYADSVKGRFTISRDNSKNTLFLQMNSLRAEDTAVYYCAKASGDDWGQGTLVTVSS VL: not shown | 0.2 | 0.27 | 1.12 | 2.48 | 6 | 4.36 | 0.14 | 2.02 | 0.35 | 4.28 | 0.82 | 6 | 5 | 7 | 0.69 | 
anti-KDR monoclonal antibody 33D5 (antibody, V domains shown, Fully human mAb from XenoMouse (IgG2 or IgG4 strain); hybridoma supernatant) VH: QVQLVQSGAEVKKPGASVKVSCKASGYTFGSYDINWVRQATGQGLEWMGWMNPNSGNTGYAQKFQGRVTLTRNTSIRTVYMELSSLRSEDTAVYYCARGGYSNLGWFDPWGQGSLVTVSS VL: DIQMTQSPSSVSVSVGDRVTITCRASQGISSWLAWYQQKPGKAPKLLIYAASSLQSGVPSRFSGSGSGTDFTLTISSLQPEDFATYYCQQANSFPFTFGPGTKVDIK |  |  |  |  |  |  |  |  |  |  |  |  |  |  |  | % Inhibition of VEGF-E-mediated pTyr Activity [14]: 30%; % Inhibition of VEGF165-mediated pTyr Activity, Average [15]: 77%; % Inhibition of VEGF165-mediated pTyr Activity, n = 1 [15]: 95%; % Inhibition of VEGF165-mediated pTyr Activity, n = 2 [15]: 72%; % Inhibition of VEGF165-mediated pTyr Activity, n = 3 [15]: 63%; HUVEC survival (n = 1) 1:10 dilution of supernatant (RLU) [16]: 43400 RLU; HUVEC survival (n = 2) 1:20 dilution of supernatant (RLU) [16]: 706 RLU; FACS Geometric Mean [17]: 24; KDR OD(450 nm) [18]: 3.59 OD450
33E1 (antibody, V domains shown, Fully human mAb from XenoMouse hybridoma, tested as hybridoma supernatant) VH: QVQLQESGPGLVKPSQTLSLTCTVSGGSISSGDHYWSWIRQHPGKGLEWIGHIYYSGSTDYNPSLKSRVTISVDTSKNHFSLKLNSVTAADTAVYYCARTNSSSWSDWYFDLWGRGTLVTVSS VL: DIVMTQSPDSLAVSLGERATINCKSSQSILYSSNNKNYLAWYQRKPGQPPILLIHWASTRESGVPDRFSGSGSRTDFTLTISSLQAEDVAVYYCQQYFITPWTFGQGTKVEIK | 0.07 | 0.98 | 0.36 | 0.85 | 4.24 | 4.06 | 0.49 | 3.51 | 0.11 | 4.07 | 2.09 | 60 | 66 | 54 | 0.15 | 
